Assay results taken from patent US20250019439A1 (Adimab, published 2025).

Experiments:
[1] = target: T1, CTL-62223; assay: SPR Carterra avidity, yeast anti-ID
T1 construct: also called mosunetuzumab
Description: (§1) Kinetic analysis was conducted at 25° C. in an HBSTE running buffer system (Carterra Cat #3630) using a Carterra LSA (Carterra USA, Salt Lake City, UT). The sample compartment was maintained at 20° C. for the duration of each experiment.
(§2) For antibody capture experiments, a goat anti-human Fc antibody (Jackson ImmunoResearch) was covalently coupled to an HC30M sensor chip surface via standard amine coupling (1:1 EDC:NHS) and then blocked with ethanolamine (1.0 M, pH 8.5). Covalent coupling steps were performed in 25 mM MES buffer (Carterra, Cat #3625) plus 0.05% Tween20. The anti-CD3 antibodies (100 nM in running buffer) were flowed over discrete regions of interest on the chip surface for 5 minutes. […] Dissociation of the anti-idiotype antibodies was monitored for 300s. Several blank buffer samples were injected over the entire chip surface at the start of each non-regenerative kinetic cycle. The preceding blank buffer injection was used for blank surface subtraction. At the end of each non-regenerative kinetic cycle, all surfaces were regenerated via two 30s injections of 10 mM glycine, pH 1.7.
(§3) For data processing and fitting, sensorgrams were double reference subtracted with a baseline drift correction of 4 RU. Sensorgrams were y-aligned and baseline corrected, filtered and cropped to include only the association and dissociation steps. Data was fitted to a 1:1 binding model using Carterra Kinetics Data Analysis software version 1.7.1.3055.

[2] = target: T2, ADI-74968; assay: SPR Carterra avidity, yeast anti-ID
T2 construct: pH-dependent anti-CD3 antibody made in CHO cells
Description: as §1, §2, §3

[3] = target: T3, ADI-74965; assay: SPR Carterra avidity, yeast anti-ID
T3 construct: pH-dependent anti-CD3 antibody made in CHO cells
Description: as §1, §2, §3

[4] = target: T4, ADI-67447; assay: SPR Carterra avidity, yeast anti-ID
T4 construct: anti-CD3 antibody made in CHO cells, captured by anti-human Fc
Description: as §1, §2, §3

[5] = target: T5, ADI-67450; assay: SPR Carterra avidity, yeast anti-ID
T5 construct: anti-CD3 antibody made in CHO cells, captured by anti-human Fc
Description: as §1, §2, §3

[6] = target: T6, ADI-76362; assay: SPR Carterra avidity, yeast anti-ID
T6 construct: anti-CD3 antibody made in CHO cells, captured by anti-human Fc
Description: as §1, §2, §3

[7] = target: T7, ADI-26943; assay: SPR Carterra avidity, yeast anti-ID
T7 construct: anti-CD3 antibody made in CHO cells, captured by anti-human Fc
T7 sequence (VH, as listed by the source, chain 1 of 2): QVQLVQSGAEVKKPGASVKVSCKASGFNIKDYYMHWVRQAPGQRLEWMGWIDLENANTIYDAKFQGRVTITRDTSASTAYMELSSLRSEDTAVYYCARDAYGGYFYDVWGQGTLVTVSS
T7 sequence (VL, as listed by the source, chain 2 of 2): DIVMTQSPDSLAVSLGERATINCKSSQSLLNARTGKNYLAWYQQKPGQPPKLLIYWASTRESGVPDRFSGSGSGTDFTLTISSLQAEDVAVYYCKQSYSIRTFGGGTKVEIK
Description: as §1, §2, §3

[8] = target: T8, ADI-76361; assay: SPR Carterra avidity, yeast anti-ID
T8 construct: anti-CD3 antibody made in CHO cells, captured by anti-human Fc
T8 sequence (VH, as listed by the source, chain 1 of 2): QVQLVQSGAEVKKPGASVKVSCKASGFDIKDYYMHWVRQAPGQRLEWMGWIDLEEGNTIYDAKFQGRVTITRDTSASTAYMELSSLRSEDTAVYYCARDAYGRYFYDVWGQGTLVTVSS
T8 sequence (VL, as listed by the source, chain 2 of 2): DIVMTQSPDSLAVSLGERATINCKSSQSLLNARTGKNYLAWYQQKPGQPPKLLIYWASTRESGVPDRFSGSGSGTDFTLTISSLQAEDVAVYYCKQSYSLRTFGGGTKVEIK
Description: as §1, §2, §3

[9] = target: T9, ADI-76360; assay: SPR Carterra avidity, yeast anti-ID
T9 construct: anti-CD3 antibody made in CHO cells, captured by anti-human Fc
T9 sequence (VH, as listed by the source, chain 1 of 2): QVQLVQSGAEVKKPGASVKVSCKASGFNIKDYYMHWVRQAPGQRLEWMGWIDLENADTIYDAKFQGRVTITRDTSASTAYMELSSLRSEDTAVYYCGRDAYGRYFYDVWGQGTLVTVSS
Description: as §1, §2, §3

[10] = target: T10, ADI-26919; assay: SPR Carterra avidity, yeast anti-ID
T10 construct: anti-CD3 antibody made in CHO cells, captured by anti-human Fc
T10 sequence (VH, as listed by the source limits assumed, chain 1 of 2): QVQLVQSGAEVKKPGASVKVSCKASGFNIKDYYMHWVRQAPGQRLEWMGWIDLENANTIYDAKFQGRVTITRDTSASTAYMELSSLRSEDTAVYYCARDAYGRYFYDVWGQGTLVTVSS
Description: as §1, §2, §3

[11] = target: T11, ADI-48592; assay: SPR Carterra avidity, yeast anti-ID
T11 construct: pH-dependent anti-CD3 antibody made in CHO cells
Description: as §1, §2, §3

[12] = target: T12, ADI-76357; assay: SPR Carterra avidity, yeast anti-ID
T12 construct: anti-CD3 antibody made in CHO cells, captured by anti-human Fc
T12 sequence (VH, as listed by the source, chain 1 of 2): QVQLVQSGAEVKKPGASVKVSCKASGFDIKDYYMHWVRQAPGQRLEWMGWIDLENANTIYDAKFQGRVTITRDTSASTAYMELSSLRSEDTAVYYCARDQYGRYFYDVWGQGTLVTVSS
T12 sequence (VL, as listed by the source, chain 2 of 2): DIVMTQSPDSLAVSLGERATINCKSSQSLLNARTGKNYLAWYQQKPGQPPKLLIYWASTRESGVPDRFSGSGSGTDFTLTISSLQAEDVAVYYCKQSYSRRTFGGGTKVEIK
Description: as §1, §2, §3

[13] = target: T13, ADI-48576; assay: SPR Carterra avidity, yeast anti-ID
T13 construct: pH-dependent anti-CD3 antibody made in CHO cells
Description: as §1, §2, §3

[14] = target: T14, ADI-76358; assay: SPR Carterra avidity, yeast anti-ID
T14 construct: anti-CD3 antibody made in CHO cells, captured by anti-human Fc
Description: as §1, §2, §3

[15] = target: T15, ADI-50024; assay: SPR Carterra avidity, yeast anti-ID
T15 construct: anti-CD3 antibody made in CHO cells, captured by anti-human Fc
T15 sequence (VH, as listed by the source limits assumed, chain 1 of 2): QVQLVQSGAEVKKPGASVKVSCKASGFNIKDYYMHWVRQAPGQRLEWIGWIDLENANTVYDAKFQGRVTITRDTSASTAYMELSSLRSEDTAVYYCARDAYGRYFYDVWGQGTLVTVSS
T15 sequence (VL, as listed by the source limits assumed, chain 2 of 2): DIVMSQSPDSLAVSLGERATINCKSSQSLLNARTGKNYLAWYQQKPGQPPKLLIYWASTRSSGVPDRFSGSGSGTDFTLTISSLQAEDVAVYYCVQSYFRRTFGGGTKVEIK
Description: as §1, §2, §3

[16] = target: T16, ADI-26913 IgG; assay: SPR Carterra avidity, yeast anti-ID
T16 construct: anti-CD3 IgG
Description: as §1, §2, §3

[17] = target: T17, ADI-70326; assay: SPR Carterra avidity, yeast anti-ID
T17 construct: anti-CD3 antibody made in CHO cells, captured by anti-human Fc
Description: as §1, §2, §3

[18] = target: T18, ADI-67445; assay: SPR Carterra avidity, yeast anti-ID
T18 construct: anti-CD3 antibody made in CHO cells, captured by anti-human Fc
Description: as §1, §2, §3

[19] = target: T19, ADI-26909; assay: SPR Carterra avidity, yeast anti-ID
T19 construct: anti-CD3 antibody made in CHO cells, captured by anti-human Fc
T19 sequence (VH, as listed by the source limits assumed, chain 1 of 2): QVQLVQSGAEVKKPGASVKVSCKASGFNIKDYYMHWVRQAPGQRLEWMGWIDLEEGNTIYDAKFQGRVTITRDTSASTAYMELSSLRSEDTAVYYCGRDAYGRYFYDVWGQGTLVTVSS
Description: as §1, §2, §3

[20] = target: T20, ADI-26912; assay: SPR Carterra avidity, yeast anti-ID
T20 construct: anti-CD3 antibody made in CHO cells, captured by anti-human Fc
T20 sequence (VH, as listed by the source, chain 1 of 2): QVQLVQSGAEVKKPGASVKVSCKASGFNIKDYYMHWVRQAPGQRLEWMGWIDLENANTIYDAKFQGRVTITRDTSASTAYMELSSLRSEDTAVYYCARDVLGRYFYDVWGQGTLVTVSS
Description: as §1, §2, §3

[21] = target: T21, ADI-48650; assay: SPR Carterra avidity, yeast anti-ID
T21 construct: pH-dependent anti-CD3 antibody made in CHO cells
Description: as §1, §2, §3

[22] = target: T22, ADI-26916 IgG; assay: SPR Carterra avidity, yeast anti-ID
T22 construct: anti-CD3 IgG
T22 sequence (VH, as listed by the source, chain 1 of 2): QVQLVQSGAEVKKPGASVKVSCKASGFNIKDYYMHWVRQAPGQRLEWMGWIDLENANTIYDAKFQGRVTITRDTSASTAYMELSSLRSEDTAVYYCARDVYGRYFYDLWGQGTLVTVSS
Description: as §1, §2, §3

[23] = target: T23, ADI-26906 IgG; assay: SPR Carterra avidity, yeast anti-ID
T23 construct: anti-CD3 IgG
Description: as §1, §2, §3

[24] = target: T24, ADI-74966; assay: SPR Carterra avidity, yeast anti-ID
T24 construct: pH-dependent anti-CD3 antibody made in CHO cells
T24 sequence (VH, as listed by the source, chain 1 of 2): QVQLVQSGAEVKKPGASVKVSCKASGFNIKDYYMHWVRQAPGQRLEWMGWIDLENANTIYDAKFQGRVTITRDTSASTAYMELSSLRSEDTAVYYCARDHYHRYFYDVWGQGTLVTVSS
T24 sequence (VL, as listed by the source, chain 2 of 2): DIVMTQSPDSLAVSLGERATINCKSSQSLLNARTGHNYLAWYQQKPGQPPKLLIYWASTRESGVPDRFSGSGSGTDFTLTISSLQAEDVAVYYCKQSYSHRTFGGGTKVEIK
Description: as §1, §2, §3

[25] = target: T25, ADI-26924; assay: SPR Carterra avidity, yeast anti-ID
T25 construct: anti-CD3 antibody made in CHO cells, captured by anti-human Fc
Description: as §1, §2, §3

[26] = target: T26, ADI-70330; assay: SPR Carterra avidity, yeast anti-ID
T26 construct: anti-CD3 antibody made in CHO cells, captured by anti-human Fc
Description: as §1, §2, §3

[27] = target: T27, ADI-48587; assay: SPR Carterra avidity, yeast anti-ID
T27 construct: pH-dependent anti-CD3 antibody made in CHO cells
T27 sequence (VL, as listed by the source, chain 2 of 2): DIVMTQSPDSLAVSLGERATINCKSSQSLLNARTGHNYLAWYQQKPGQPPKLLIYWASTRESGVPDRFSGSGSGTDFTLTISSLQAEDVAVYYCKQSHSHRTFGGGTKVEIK
Description: as §1, §2, §3

[28] = target: T28, ADI-26915; assay: SPR Carterra avidity, yeast anti-ID
T28 construct: anti-CD3 antibody made in CHO cells, captured by anti-human Fc
T28 sequence (VH, as listed by the source, chain 1 of 2): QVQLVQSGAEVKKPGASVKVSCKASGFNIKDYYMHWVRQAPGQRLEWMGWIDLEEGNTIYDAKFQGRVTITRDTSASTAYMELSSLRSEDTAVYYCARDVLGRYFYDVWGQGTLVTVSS
Description: as §1, §2, §3

[29] = target: T29, ADI-70327; assay: SPR Carterra avidity, yeast anti-ID
T29 construct: anti-CD3 antibody made in CHO cells, captured by anti-human Fc
T29 sequence (VH, as listed by the source limits assumed, chain 1 of 2): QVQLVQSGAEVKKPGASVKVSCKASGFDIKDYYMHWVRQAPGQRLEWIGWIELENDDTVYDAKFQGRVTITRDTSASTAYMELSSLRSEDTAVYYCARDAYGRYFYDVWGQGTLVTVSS
Description: as §1, §2, §3

[30] = target: T30, ADI-26921 IgG; assay: SPR Carterra avidity, yeast anti-ID, *koff limit
T30 construct: anti-CD3 IgG
T30 sequence (VH, as listed by the source limits assumed, chain 1 of 2): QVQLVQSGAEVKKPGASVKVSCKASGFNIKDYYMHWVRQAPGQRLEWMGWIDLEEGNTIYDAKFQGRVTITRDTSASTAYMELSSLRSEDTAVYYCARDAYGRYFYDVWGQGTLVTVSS
Description: as §1, §2, §3

[31] = target: T31, ADI-26920 IgG; assay: SPR Carterra avidity, yeast anti-ID, *koff limit
T31 construct: anti-CD3 IgG
T31 sequence (VH, as listed by the source limits assumed, chain 1 of 2): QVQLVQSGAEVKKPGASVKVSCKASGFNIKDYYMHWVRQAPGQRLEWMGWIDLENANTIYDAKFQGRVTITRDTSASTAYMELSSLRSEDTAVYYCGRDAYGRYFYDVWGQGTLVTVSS
Description: as §1, §2, §3

[32] = target: T32, ADI-76359; assay: SPR Carterra avidity, yeast anti-ID, *koff limit
T32 construct: anti-CD3 antibody made in CHO cells, captured by anti-human Fc
Description: as §1, §2, §3

[33] = target: T33, ADI-74967; assay: SPR Carterra avidity, yeast anti-ID, *koff limit
T33 construct: pH-dependent anti-CD3 antibody made in CHO cells
T33 sequence (VL, as listed by the source, chain 2 of 2): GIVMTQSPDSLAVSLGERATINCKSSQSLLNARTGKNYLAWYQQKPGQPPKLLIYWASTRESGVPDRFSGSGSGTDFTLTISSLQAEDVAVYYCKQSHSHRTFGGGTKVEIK
Description: as §1, §2, §3

[34] = target: T34, ADI-22523 Fab; assay: BLI; tip anti-ID IgG, solution ADI-22523 Fab
T34 construct: anti-CD3 Fab by papain digestion of the IgG
Description: (§4) ForteBio affinity measurements were performed generally as previously described (Estep et al., MAbs. 2013 5(2):270-8). Briefly, ForteBio affinity measurements were performed by loading antibody IgG or Fabs on-line onto AHC sensors. Sensors were equilibrated off-line in assay buffer for 30 minutes and then monitored on-line for 60 seconds for baseline establishment. For avid binding measurement, sensors with loaded antibodies were exposed to IgG or Fab solutions for 3 minutes, afterwards they were transferred to assay buffer for 3 minutes for off-rate measurement. Kinetics data were fit using a 1:1 binding model in the data analysis software provided by ForteBio to obtain equilibrium dissociation constant (KD=koff/kₒₙ) values. In each column, tip-immobilized antibodies are listed first and solution antibodies second.

[35] = target: T35, ADI-22523 IgG; assay: BLI; tip anti-ID IgG, solution ADI-22523 IgG
T35 construct: anti-CD3 IgG
Description: as §4

[36] = target: T36, CTL-62228; assay: SPR Carterra, yeast anti-ID
T36 construct: also called glofitamab
Description: as §1, §2, §3

[37] = target: T37, CTL-62227; assay: SPR Carterra, yeast anti-ID
T37 construct: also called odronextamab
Description: as §1, §2, §3

[38] = target: T38, CTL-62240; assay: SPR Carterra, yeast anti-ID
T38 construct: also called ONO-4685
Description: as §1, §2, §3

[39] = target: T30, ADI-26921 IgG; assay: SPR Carterra avidity, yeast anti-ID
Description: as §1, §2, §3

[40] = target: T31, ADI-26920 IgG; assay: SPR Carterra avidity, yeast anti-ID
Description: as §1, §2, §3

[41] = target: T32, ADI-76359; assay: SPR Carterra avidity, yeast anti-ID
Description: as §1, §2, §3

[42] = target: T33, ADI-74967; assay: SPR Carterra avidity, yeast anti-ID
Description: as §1, §2, §3

[43] = target: T10, ADI-26919; assay: SPR Carterra avidity, yeast anti-ID, *koff limit
Description: as §1, §2, §3

T1 sequence (VH, as listed by the source, chain 1 of 2): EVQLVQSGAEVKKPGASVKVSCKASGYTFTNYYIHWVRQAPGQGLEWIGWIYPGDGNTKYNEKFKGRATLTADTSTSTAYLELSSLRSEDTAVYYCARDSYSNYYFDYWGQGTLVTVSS
T1 sequence (VL, as listed by the source, chain 2 of 2): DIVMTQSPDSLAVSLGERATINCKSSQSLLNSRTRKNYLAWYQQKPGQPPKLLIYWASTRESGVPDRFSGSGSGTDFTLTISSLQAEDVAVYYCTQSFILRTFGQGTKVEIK

Binder | Kd [1] | binding result [3] | Kd [4] | Kd [6] | Kd [7] | Kd [8] | Kd [9] | binding result [11] | Kd [12] | binding result [13] | Kd [15] | Kd [16] | binding result [17] | Kd [18] | Kd [19] | binding result [20] | binding result [21] | Kd [22] | Kd [23] | Kd [24] | further results
ADI-34137 (antibody, V domains shown, anti-ID IgG) VH: QVQLVQSGAEVKKPGSSVKVSCKASGGTFSSYAISWVRQAPGQGLEWMGGIIPIFGTANYAQKFQGRVTITADESTSTAYMELSSLRSEDTAVYYCARGAPNYYGSGGYDDGWFDPWGQGTLVTVSS VL: EIVLTQSPGTLSLSPGERATLSCRASQSVSSSYLAWYQQKPGQAPRLLIYGASSRATGIPDRFSGSGSGTDFTLTISRLEPEDFAVYYCQQFGRFPTFGGGTKVEIK | 1.8 nM | binds | 0.22 nM | 0.22 nM | 0.17 nM | 0.054 nM | 0.082 nM | binds | 0.086 nM | binds | 0.39 nM | 0.3 nM | binds | 0.37 nM | 0.32 nM | binds | binds | 0.31 nM | 0.33 nM | 0.21 nM | Kd [2]: 0.76 nM; Kd [5]: 0.92 nM; Kd [10]: 0.14 nM; Kd [14]: 0.96 nM; Kd [25]: 0.19 nM; Kd [26]: 0.3 nM; Kd [27]: 0.88 nM; Kd [28]: 14 nM; Kd [29]: 0.95 nM; Kd [30]: 0.048 nM; Kd [31]: 0.088 nM; Kd [32]: 0.059 nM; Kd [33]: 0.12 nM; Kd [34]: 14.8 nM; Kd [35]: 0.63 nM
ADI-34132 (antibody, V domains shown, anti-ID IgG) VH: QVQLVQSGAEVKKPGSSVKVSCKASGGTFSSYAISWVRQAPGQGLEWMGGIIPIFGTANYAQKFQGRVTITADESTSTAYMELSSLRSEDTAVYYCARGAPNYYGSGGYDDGWFDPWGQGTLVTVSS VL: DIQLTQSPSSLSASVGDRVTITCRASQSISSYLNWYQQKPGKAPKLLIYAASNLQSGVPSRFSGSGSGTDFTLTISSLQPEDFATYYCQQTLHTPITFGGGTKVEIK | 0.99 nM | binds | 0.56 nM | 0.82 nM | 0.15 nM | 0.15 nM | 0.61 nM | binds | 0.57 nM | binds | 0.35 nM | 0.93 nM | binds | 0.65 nM | 0.9 nM | binds | binds | 0.6 nM | 0.16 nM | 0.58 nM | binding result [36]: no binding (tested: up to 200 nM); binding result [37]: no binding (tested: up to 200 nM); binding result [38]: no binding (tested: up to 200 nM); binding result [2]: binds; binding result [5]: binds; Kd [39]: 0.36 nM; Kd [40]: 0.15 nM; binding result [14]: binds; Kd [25]: 0.2 nM; binding result [26]: binds; binding result [27]: binds; binding result [28]: binds; Kd [41]: 0.12 nM; binding result [29]: binds; Kd [42]: 0.28 nM; Kd [43]: 0.044 nM; Kd [35]: 84.9 nM
